# In the RNAGym collection of RNA variant scans (doi:10.7554/elife.80360):
# B1: HDV Ribozyme (parent)
# chain: GGCCGGCAUGGUCCCAGCCUCCUCGCUGGCGCCGGCUGGGCAACAUUCCGAGGGGACCGUCCCCUCGGUAAUGGCGAAUGGGACCCA
# Variants of: B1
# Assay: self-cleavage, relative activity (ratio to wild type); higher = more cleavage; co-transcriptional
row,Variant,self-cleavage
1,GGCCGGCAUGGUCCCAGCCUCCUCGCUGGCGCCGGCUGGGCAAGAUUCCGAGGGGACCGUCCCCUCGGUAAUGGCGAAUGGGACCCC [C44G A87C],0.621
2,GGCCGGCAUGGUCCCAGCCUCCUCGCUGGCGCCGGCUGGGCAAGAUUCCGAGGGGACCGUCCCCUCGGUAAUGGCGAAUGGGACCCG [C44G A87G],0.641
3,GGCCGGCAUGGUCCCAGCCUCCUCGCUGGCGCCGGCUGGGCAAGAUUCCGAGGGGGCCGUCCCCUCGGUAAUGGCGAAUGGGACCCA [C44G A56G],0.886
4,GGCCGGCAUGGUCCCAGCCUCCUCGCUGGCGCCGGCUGGGCAAGAUUCCGAGGGGCCCGUCCCCUCGGUAAUGGCGAAUGGGACCCA [C44G A56C],0.745
5,GGCCGGCAUGGUCCCAGCCUCCUCGCUGGCGCCGGCUGGGCAAGAUUCCGAGGGGACCGUCCCCUAGGUAAUGGCGAAUGGGACCCA [C44G C66A],0.692
6,GGCCGGCAUGGUCCCAGCCUCCUCGCUGGCGCCGGCUGGGCAAGAUUCCGAGGGGACCGUGCCCUCGGUAAUGGCGAAUGGGACCCA [C44G C61G],0.441
7,GGCCGGCAUGGUCCCAGCCUCCUCGCUGGCGCCGGCUGGGCAAGAUUCCGAGGGGACAGUCCCCUCGGUAAUGGCGAAUGGGACCCA [C44G C58A],1.07
8,GGCCGGCAUGGUCCCAGCCUCCUCGCUGGCGCCGGCUGGGCAAAACUCCGAGGGGACCGUCCCCUCGGUAAUGGCGAAUGGGACCCA [C44A U46C],0.767
9,GGCCGGCAUGGUCCCAGCCUCCUCGCUGGCGCCGGCUGGGCAAGAUUCUGAGGGGACCGUCCCCUCGGUAAUGGCGAAUGGGACCCA [C44G C49U],0.617
10,GGCCGGCAUGGUCCCAGCCUCCUCGCUGGCGCCGGCUGGGCAAGAUUCAGAGGGGACCGUCCCCUCGGUAAUGGCGAAUGGGACCCA [C44G C49A],0.665
11,GGCCGGCAUGGUCCCAGCCUCCUCGCUGGCGCCGGCUGGGCAAGAUUCCGAGGGGACCGUCCCCUCGGUACUGGCGAAUGGGACCCA [C44G A71C],0.76
12,GGCCGGCAUGGUCCCAGCCUCCUCGCUGGCGCCGGCUGGGCAAGAUUCCGAGGGGACCGUCCUCUCGGUAAUGGCGAAUGGGACCCA [C44G C63U],0.81
13,GGCCGGCAUGGUCCCAGCCUCCUCGCUGGCGCCGGCUGGGCAAGAUUCCGAGGGGACCGUCCACUCGGUAAUGGCGAAUGGGACCCA [C44G C63A],0.491
14,GGCCGGCAUGGUCCCAGCCUCCUCGCUGGCGCCGGCUGGGCAAGAUUCCGAGGGGACCGUCCCCUCGGUAAUGGCGAAUGGGUCCCA [C44G A83U],0.38
15,GGCCGGCAUGGUCCCAGCCUCCUCGCUGGCGCCGGCUGGGCAAGAUUCCGAGGGGACCGUCCCCUCGGUAAUGGCGAAUGGGCCCCA [C44G A83C],0.284
16,GGCCGGCAUGGUCCCAGCCUCCUCGCUGGCGCCGGCUGGGCAAAAUUCCGAGGGGACCGUCCCCUCGGUAAUGGCGAAUGUGACCCA [C44A G81U],0.203
17,GGCCGGCAUGGUCCCAGCCUCCUCGCUGGCGCCGGCUGGGCAAGUUUCCGAGGGGACCGUCCCCUCGGUAAUGGCGAAUGGGACCCA [C44G A45U],0.776
18,GGCCGGCAUGGUCCCAGCCUCCUCGCUGGCGCCGGCUGGGCAAGGUUCCGAGGGGACCGUCCCCUCGGUAAUGGCGAAUGGGACCCA [C44G A45G],0.503
19,GGCCGGCAUGGUCCCAGCCUCCUCGCUGGCGCCGGCUGGGCAAAAUUCCGAGGGGACCGCCCCCUCGGUAAUGGCGAAUGGGACCCA [C44A U60C],0.831
20,GGCCGGCAUGGUCCCAGCCUCCUCGCUGGCGCCGGCUGGGCAAGAUUCCGAGGGGACCGUCCCGUCGGUAAUGGCGAAUGGGACCCA [C44G C64G],0.678
21,GGCCGGCAUGGUCCCAGCCUCCUCGCUGGCGCCGGCUGGGCAAAAUUCCGAGGGGACCGUCCCCUCGCUAAUGGCGAAUGGGACCCA [C44A G68C],0.764
22,GGCCGGCAUGGUCCCAGCCUCCUCGCUGGCGCCGGCUGGGCAAAAUUCCGAGGGGACCGUCCCCUCGUUAAUGGCGAAUGGGACCCA [C44A G68U],0.554

row,Variant,self-cleavage
1,GGCCGGCAUGGUCCCAGCCUCCUCGCUGGCGCCGGCUGGGCAAAAUUCCGAGGGGACCGUCCCCUCGGUAAUGGCGAACGGGACCCA [C44A U79C],0.122
2,GGCCGGCAUGGUCCCAGCCUCCUCGCUGGCGCCGGCUGGGCAAAAUUCCGAGGGGACCGUCCCCUCGGUAAUGGCGAAAGGGACCCA [C44A U79A],0.244
3,GGCCGGCAUGGUCCCAGCCUCCUCGCUGGCGCCGGCUGGGCAAAAUUCCGAGGGGACCGUCCCCUCGGUAACGGCGAAUGGGACCCA [C44A U72C],0.467
4,GGCCGGCAUGGUCCCAGCCUCCUCGCUGGCGCCGGCUGGGCAAAAUUCCGAGGGGACCGUCCCCUCGGUAAAGGCGAAUGGGACCCA [C44A U72A],0.733
5,GGCCGGCAUGGUCCCAGCCUCCUCGCUGGCGCCGGCUGGGCAAGAUUCCGAGGGGACCGUCCCCUCGGUAAUGGCGAGUGGGACCCA [C44G A78G],0.246
6,GGCCGGCAUGGUCCCAGCCUCCUCGCUGGCGCCGGCUGGGCAAGAUUCCGAGGGGACCGUCCCCUCGGUAAUGGCGACUGGGACCCA [C44G A78C],0.193
7,GGCCGGCAUGGUCCCAGCCUCCUCGCUGGCGCCGGCUGGGCAAGAUUACGAGGGGACCGUCCCCUCGGUAAUGGCGAAUGGGACCCA [C44G C48A],0.543
8,GGCCGGCAUGGUCCCAGCCUCCUCGCUGGCGCCGGCUGGGCAAGAUUUCGAGGGGACCGUCCCCUCGGUAAUGGCGAAUGGGACCCA [C44G C48U],0.517
9,GGCCGGCAUGGUCCCAGCCUCCUCGCUGGCGCCGGCUGGGCAAGAUUCCGAGGGGACCGUCCCCUCGGUAAUGGCGAAUGGGAGCCA [C44G C84G],0.375
10,GGCCGGCAUGGUCCCAGCCUCCUCGCUGGCGCCGGCUGGGCAAGAUUCCGAGGGGACCGUCCCCUCGGUAAUGGCGAAUGGGAACCA [C44G C84A],0.394
11,GGCCGGCAUGGUCCCAGCCUCCUCGCUGGCGCCGGCUGGGCAAGAUUCCGAGGGGACCGUCCCCUCGGUAAUGGCGAAUGGGAUCCA [C44G C84U],0.53
12,GGCCGGCAUGGUCCCAGCCUCCUCGCUGGCGCCGGCUGGGCAAAAUUCCGAGGGGACCGUCCCCUCGGUAAUGGCGAAUUGGACCCA [C44A G80U],0.118
13,GGCCGGCAUGGUCCCAGCCUCCUCGCUGGCGCCGGCUGGGCAAAAUUCCGAGGGGACCGUCCCCUCGGUAAUGGCGAAUAGGACCCA [C44A G80A],0.169
14,GGCCGGCAUGGUCCCAGCCUCCUCGCUGGCGCCGGCUGGGCAAAAUUCCGAGGGGACCGUCCCCUCGGUAAUGGCGAAUCGGACCCA [C44A G80C],0.109
15,GGCCGGCAUGGUCCCAGCCUCCUCGCUGGCGCCGGCUGGGCAAGAUUCCGAGGGGACCGUCCCCUCGGUAAUGGCGAAUGGGACCGA [C44G C86G],0.499
16,GGCCGGCAUGGUCCCAGCCUCCUCGCUGGCGCCGGCUGGGCAAGAUUCCGAGGGGACCGUCCCCUCGGUAAUGGCGAAUGGGACCAA [C44G C86A],0.767
17,GGCCGGCAUGGUCCCAGCCUCCUCGCUGGCGCCGGCUGGGCAAGAUUCCGAGGGGACCGUCCCCUCGGUAAUGGCGAAUGGGACGCA [C44G C85G],0.831
18,GGCCGGCAUGGUCCCAGCCUCCUCGCUGGCGCCGGCUGGGCAAGAUUCCGAGGGGACCGUCCCCUCGGUAAUGGCGAAUGGGACUCA [C44G C85U],0.892
19,GGCCGGCAUGGUCCCAGCCUCCUCGCUGGCGCCGGCUGGGCAAGAUUCCGAGGGGACCGUCCCCUCGGUAAUGGCGAAUGGGACACA [C44G C85A],0.525
20,GGCCGGCAUGGUCCCAGCCUCCUCGCUGGCGCCGGCUGGGCAAGAUUCCGUGGGGACCGUCCCCUCGGUAAUGGCGAAUGGGACCCA [C44G A51U],0.591
21,GGCCGGCAUGGUCCCAGCCUCCUCGCUGGCGCCGGCUGGGCAAGAUUCCGCGGGGACCGUCCCCUCGGUAAUGGCGAAUGGGACCCA [C44G A51C],0.447
22,GGCCGGCAUGGUCCCAGCCUCCUCGCUGGCGCCGGCUGGGCAAGAUUCCGAGGGGACCGUCCCCUCGGUAAUGGUGAAUGGGACCCA [C44G C75U],0.0627

row,Variant,self-cleavage
1,GGCCGGCAUGGUCCCAGCCUCCUCGCUGGCGCCGGCUGGGCAAGAUUCCGAGGGGACCGUCCCCUCGGUAAUGGGGAAUGGGACCCA [C44G C75G],0.256
2,GGCCGGCAUGGUCCCAGCCUCCUCGCUGGCGCCGGCUGGGCAAAAUCCCGAGGGGACCGUCCCCUCGGUAAUGGCGAAUGGGACCCA [C44A U47C],0.831
3,GGCCGGCAUGGUCCCAGCCUCCUCGCUGGCGCCGGCUGGGCAAAAUACCGAGGGGACCGUCCCCUCGGUAAUGGCGAAUGGGACCCA [C44A U47A],0.965
4,GGCCGGCAUGGUCCCAGCCUCCUCGCUGGCGCCGGCUGGGCAAAAUGCCGAGGGGACCGUCCCCUCGGUAAUGGCGAAUGGGACCCA [C44A U47G],0.906
5,GGCCGGCAUGGUCCCAGCCUCCUCGCUGGCGCCGGCUGGGCAAAAUUCCGAGGGGACCGUCCCCUCGGUAAUAGCGAAUGGGACCCA [C44A G73A],0.577
6,GGCCGGCAUGGUCCCAGCCUCCUCGCUGGCGCCGGCUGGGCAAAAUUCCGAGGGGACCGUCCCCUCGGUAAUCGCGAAUGGGACCCA [C44A G73C],0.696
7,GGCCGGCAUGGUCCCAGCCUCCUCGCUGGCGCCGGCUGGGCAAAAUUCCGAGGGGACCGUCCCCUCGGUAAUUGCGAAUGGGACCCA [C44A G73U],0.397
8,GGCCGGCAUGGUCCCAGCCUCCUCGCUGGCGCCGGCUGGGCAAGAUUCCGAGGGGACCGUCCCCUCGGUGAUGGCGAAUGGGACCCA [C44G A70G],0.525
9,GGCCGGCAUGGUCCCAGCCUCCUCGCUGGCGCCGGCUGGGCAAGAUUCCGAGGGGACCGUCCCCUCGGUCAUGGCGAAUGGGACCCA [C44G A70C],0.831
10,GGCCGGCAUGGUCCCAGCCUCCUCGCUGGCGCCGGCUGGGCAAAAUUCCGAGGGGACCGUCCCCUCGGUAAUGGCGAAUGGUACCCA [C44A G82U],0.0791
11,GGCCGGCAUGGUCCCAGCCUCCUCGCUGGCGCCGGCUGGGCAAGAUUCCGAGGGGACCGUCGCCUCGGUAAUGGCGAAUGGGACCCA [C44G C62G],0.485
12,GGCCGGCAUGGUCCCAGCCUCCUCGCUGGCGCCGGCUGGGCAAGAUUCCGAGGGGACCGUCUCCUCGGUAAUGGCGAAUGGGACCCA [C44G C62U],0.758
13,GGCCGGCAUGGUCCCAGCCUCCUCGCUGGCGCCGGCUGGGCAAGAUUCCGAGGGGACCGUCCCCUCGGUAAUGGCGAAUGGGACCCA [C44G],0.753
14,GGCCGGCAUGGUCCCAGCCUCCUCGCUGGCGCCGGCUGGGCAAGAUUCCGAGGGGAACGUCCCCUCGGUAAUGGCGAAUGGGACCCA [C44G C57A],0.944
15,GGCCGGCAUGGUCCCAGCCUCCUCGCUGGCGCCGGCUGGGCAAGAUUCCGAGGGGAGCGUCCCCUCGGUAAUGGCGAAUGGGACCCA [C44G C57G],0.458
16,GGCCGGCAUGGUCCCAGCCUCCUCGCUGGCGCCGGCUGGGCAAGAUUCCGAGGGGAUCGUCCCCUCGGUAAUGGCGAAUGGGACCCA [C44G C57U],0.745
17,GGCCGGCAUGGUCCCAGCCUCCUCGCUGGCGCCGGCUGGGCAAAAUUCCGAGGGGACCGUCCCCUCGGUAAUGACGAAUGGGACCCA [C44A G74A],0.381
18,GGCCGGCAUGGUCCCAGCCUCCUCGCUGGCGCCGGCUGGGCAAGAUUCCGAGGGGACCGUCCCCUCGGUAAUGGCGGAUGGGACCCA [C44G A77G],0.665
19,GGCCGGCAUGGUCCCAGCCUCCUCGCUGGCGCCGGCUGGGCAAGAUUCCGAGGGGACCGUCCCCUCGGUAAUGGCGCAUGGGACCCA [C44G A77C],0.297
20,GGCCGGCAUGGUCCCAGCCUCCUCGCUGGCGCCGGCUGGGCAAAAUUCCGAGGGGACCGUCCCCACGGUAAUGGCGAAUGGGACCCA [C44A U65A],0.95
